From the supplement of paper PMC9112550, “Optimization of the antimicrobial peptide Bac7 by deep mutational scanning” (BMC Biology, 2022)

system: Escherichia coli TOP10; assay: shrunken log2 fold change of peptide-encoding DNA abundance (4.5 h post-induction vs induction); higher = less antimicrobial activity (less host growth inhibition); settings: time post-induction: 4.5 h; library: site-saturation at positions 5, 18, 19, 20
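Further: peptides expressed intracellularly from a pBAD plasmid library in pooled LB shake-flask culture, induced with 0.3% L-arabinose, DNA abundance read by NGS, three biological replicates, DESeq2 with apeglm shrinkage.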

| Sequence | shrunken log2 fold change |
| --- | --- |
| RRIRIRPPRLPRPRPRPNRFPRP | -0.174 |
| RRIRTRPPRLPRPRPRPWLCPRP | 0.0607 |
| RRIRTRPPRLPRPRPRPTPQPRP | 0.241 |
| RRIRGRPPRLPRPRPRPYDEPRP | 0.0538 |
| RRIRWRPPRLPRPRPRPCQNPRP | -0.118 |
| RRIRVRPPRLPRPRPRPPPGPRP | 1.01 |
| RRIRVRPPRLPRPRPRPANIPRP | -0.156 |
| RRIRIRPPRLPRPRPRPTIAPRP | -0.327 |
| RRIRTRPPRLPRPRPRPLDVPRP | -0.594 |
| RRIRPRPPRLPRPRPRPRHPPRP | 0.357 |
| RRIRWRPPRLPRPRPRPHESPRP | -0.262 |
| RRIRKRPPRLPRPRPRPMYWPRP | -0.111 |
| RRIRGRPPRLPRPRPRPYPNPRP | -0.529 |
| RRIRIRPPRLPRPRPRPPFAPRP | 0.143 |
| RRIRSRPPRLPRPRPRPSSNPRP | -0.872 |
| RRIRWRPPRLPRPRPRPDDTPRP | 0.222 |
| RRIRPRPPRLPRPRPRPMGNPRP | -0.0876 |
| RRIRERPPRLPRPRPRPGWFPRP | -0.249 |
| RRIRYRPPRLPRPRPRPTMCPRP | -0.159 |
| RRIRVRPPRLPRPRPRPEQTPRP | -0.0332 |
| RRIRGRPPRLPRPRPRPREAPRP | 1.31 |
| RRIRHRPPRLPRPRPRPIMFPRP | -0.439 |
| RRIRIRPPRLPRPRPRPCYPPRP | -0.428 |
| RRIRFRPPRLPRPRPRPQGMPRP | -0.0535 |
| RRIRYRPPRLPRPRPRPIHDPRP | -1.22 |

| Sequence | shrunken log2 fold change |
| --- | --- |
| RRIRPRPPRLPRPRPRPIHYPRP | -0.967 |
| RRIRWRPPRLPRPRPRPDQLPRP | 0.066 |
| RRIRGRPPRLPRPRPRPTFLPRP | 0.356 |
| RRIRYRPPRLPRPRPRPQVQPRP | -0.0106 |
| RRIRKRPPRLPRPRPRPSSLPRP | -0.557 |
| RRIRMRPPRLPRPRPRPTLQPRP | 0.13 |
| RRIRMRPPRLPRPRPRPCKIPRP | -0.0518 |
| RRIRERPPRLPRPRPRPGCRPRP | 0.0043 |
| RRIRPRPPRLPRPRPRPGILPRP | -0.557 |
| RRIRPRPPRLPRPRPRPMHCPRP | -0.0698 |
| RRIRARPPRLPRPRPRPVGMPRP | 0.376 |
| RRIRDRPPRLPRPRPRPFHWPRP | -0.0944 |
| RRIRTRPPRLPRPRPRPIYVPRP | -0.34 |
| RRIRRRPPRLPRPRPRPIENPRP | -0.0103 |
| RRIRYRPPRLPRPRPRPLWPPRP | -0.135 |
| RRIRYRPPRLPRPRPRPNDAPRP | 0.011 |
| RRIRQRPPRLPRPRPRPMKMPRP | 0.0133 |
| RRIRGRPPRLPRPRPRPELCPRP | 0.18 |
| RRIRHRPPRLPRPRPRPITYPRP | -0.184 |
| RRIRKRPPRLPRPRPRPCMQPRP | 0.121 |
| RRIRWRPPRLPRPRPRPSERPRP | 0.415 |
| RRIRNRPPRLPRPRPRPHMHPRP | -0.582 |
| RRIRWRPPRLPRPRPRPSPDPRP | 0.236 |
| RRIRARPPRLPRPRPRPAASPRP | 0.928 |
| RRIRDRPPRLPRPRPRPGDMPRP | 0.164 |

| Sequence | shrunken log2 fold change |
| --- | --- |
| RRIRGRPPRLPRPRPRPQLDPRP | 0.646 |
| RRIRVRPPRLPRPRPRPINFPRP | -0.458 |
| RRIRNRPPRLPRPRPRPQLTPRP | -0.026 |
| RRIRERPPRLPRPRPRPVQIPRP | 0.27 |
| RRIRLRPPRLPRPRPRPLDPPRP | 0.061 |
| RRIRARPPRLPRPRPRPILMPRP | 0.143 |
| RRIRGRPPRLPRPRPRPAILPRP | -0.0316 |
| RRIRTRPPRLPRPRPRPAHHPRP | -0.0336 |
| RRIRHRPPRLPRPRPRPCVVPRP | 0.000418 |
| RRIRVRPPRLPRPRPRPNVFPRP | 0.0413 |
| RRIRMRPPRLPRPRPRPWLDPRP | 0.0568 |
| RRIRMRPPRLPRPRPRPAKTPRP | 0.0368 |
| RRIRCRPPRLPRPRPRPTCMPRP | 0.173 |
| RRIRKRPPRLPRPRPRPARLPRP | 0.434 |
| RRIRPRPPRLPRPRPRPRYWPRP | 0.0515 |
| RRIRARPPRLPRPRPRPYLHPRP | -1.18 |
| RRIRNRPPRLPRPRPRPPVWPRP | 0.476 |
| RRIRIRPPRLPRPRPRPVQDPRP | -1.09 |
| RRIRRRPPRLPRPRPRPRAAPRP | 0.833 |
| RRIRMRPPRLPRPRPRPIFCPRP | -0.0454 |
| RRIRTRPPRLPRPRPRPKCGPRP | -0.0177 |
| RRIRWRPPRLPRPRPRPEANPRP | 1.14 |
| RRIRCRPPRLPRPRPRPTPLPRP | 0.522 |
| RRIRWRPPRLPRPRPRPKLWPRP | 1.06 |
| RRIRYRPPRLPRPRPRPAFSPRP | 0.0115 |

| Sequence | shrunken log2 fold change |
| --- | --- |
| RRIRCRPPRLPRPRPRPDCQPRP | -0.0895 |
| RRIRDRPPRLPRPRPRPTSTPRP | 0.231 |
| RRIRLRPPRLPRPRPRPCIIPRP | -0.394 |
| RRIRQRPPRLPRPRPRPIVWPRP | -0.287 |
| RRIRRRPPRLPRPRPRPWGTPRP | -0.0589 |
| RRIRCRPPRLPRPRPRPLAIPRP | -0.0224 |
| RRIRRRPPRLPRPRPRPEEWPRP | -0.00804 |
| RRIRLRPPRLPRPRPRPHELPRP | 0.245 |
| RRIRWRPPRLPRPRPRPEPCPRP | 0.157 |
| RRIRLRPPRLPRPRPRPQITPRP | -0.294 |
| RRIRERPPRLPRPRPRPSVWPRP | 0.0602 |
| RRIRYRPPRLPRPRPRPLDGPRP | -0.467 |
| RRIRYRPPRLPRPRPRPQLIPRP | -0.3 |
| RRIRFRPPRLPRPRPRPARGPRP | 0.624 |
| RRIRMRPPRLPRPRPRPYWTPRP | -0.354 |
| RRIRYRPPRLPRPRPRPVESPRP | -0.0746 |
| RRIRTRPPRLPRPRPRPPFGPRP | 0.0407 |
| RRIRFRPPRLPRPRPRPFNQPRP | -0.161 |
| RRIRDRPPRLPRPRPRPQVDPRP | -0.0156 |
| RRIRSRPPRLPRPRPRPAEGPRP | 0.29 |
| RRIRQRPPRLPRPRPRPCCEPRP | -0.256 |
| RRIRQRPPRLPRPRPRPRWKPRP | 0.552 |
| RRIRDRPPRLPRPRPRPASDPRP | 0.0114 |
| RRIRYRPPRLPRPRPRPYHTPRP | -0.0274 |
| RRIRWRPPRLPRPRPRPWNSPRP | 0.0293 |

| Sequence | shrunken log2 fold change |
| --- | --- |
| RRIRARPPRLPRPRPRPVVWPRP | 0.687 |
| RRIRLRPPRLPRPRPRPQIEPRP | -0.155 |
| RRIRGRPPRLPRPRPRPCSAPRP | 1.58 |
| RRIRCRPPRLPRPRPRPGEEPRP | 0.135 |
| RRIRTRPPRLPRPRPRPRIAPRP | 0.102 |
| RRIRARPPRLPRPRPRPNAKPRP | 0.262 |
| RRIRGRPPRLPRPRPRPIEVPRP | 0.289 |
| RRIRPRPPRLPRPRPRPYTDPRP | -0.562 |
| RRIRYRPPRLPRPRPRPMDDPRP | -0.0837 |
| RRIRGRPPRLPRPRPRPRIRPRP | 0.211 |
| RRIRSRPPRLPRPRPRPLWFPRP | 0.274 |
| RRIRKRPPRLPRPRPRPEREPRP | 0.671 |
| RRIRYRPPRLPRPRPRPGGAPRP | 0.359 |
| RRIRNRPPRLPRPRPRPMNPPRP | -0.235 |
| RRIRTRPPRLPRPRPRPTAQPRP | 0.247 |
| RRIRVRPPRLPRPRPRPWHEPRP | -0.127 |
| RRIRGRPPRLPRPRPRPIGAPRP | 0.251 |
| RRIRQRPPRLPRPRPRPVYWPRP | 0.0694 |
| RRIRDRPPRLPRPRPRPDDCPRP | -0.00963 |
| RRIRIRPPRLPRPRPRPGMFPRP | -0.284 |
| RRIRVRPPRLPRPRPRPYHLPRP | -0.184 |
| RRIRRRPPRLPRPRPRPTIGPRP | -0.229 |
| RRIRWRPPRLPRPRPRPSYLPRP | -0.417 |
| RRIRQRPPRLPRPRPRPEEWPRP | 0.0824 |
| RRIRWRPPRLPRPRPRPGNSPRP | -0.22 |
